Test results published in paper PMC11564547, “An interaction network of inner centriole proteins organised by POC1A-POC1B heterodimer crosslinks ensures centriolar integrity” (Nature Communications, 2024).

B2: POC5-HA-TEV-2xFLAG (wild type POC5 of the POC5-Centrin2 complex from insect cells) (natural protein, human, UniProt Q8NA72 1-575, looked up)
chain: MSSDEEKYSLPVVQNDSSRGSSVSSNLQEEYEELLHYAIVTPNIEPCASQSSHPKGELVPDVRISTIHDILHSQGNNSEVRETAIEVGKGCDFHISSHSKTDESSPVLSPRKPSHPVMDFFSSHLLADSSSPATNSSHTDAHEILVSDFLVSDENLQKMENVLDLWSSGLKTNIISELSKWRLNFIDWHRMEMRKEKEKHAAHLKQLCNQINELKELQKTFEISIGRKDEVISSLSHAIGKQKEKIELMRTFFHWRIGHVRARQDVYEGKLADQYYQRTLLKKVWKVWRSVVQKQWKDVVERACQARAEEVCIQISNDYEAKVAMLSGALENAKAEIQRMQHEKEHFEDSMKKAFMRGVCALNLEAMTIFQNRNDAGIDSTNNKKEEYGPGVQGKEHSAHLDPSAPPMPLPVTSPLLPSPPAAVGGASATAVPSAASMTSTRAASASSVHVPVSALGAGSAATAASEEMYVPRVVTSAQQKAGRTITARITGRCDFASKNRISSSLAIMGVSPPMSSVVVEKHHPVTVQTIPQATAAKYPRTIHPESSTSASRSLGTRSAHTQSLTSVHSIKVVD
notes: POC5, human; cDNA from SinoBiological; No TEV cleavage is described; also called POC5-TEV-2xFLAG; full-length POC5; not shown: 2xFLAG (after a TEV site), C-terminal, kept

Legend:
[1] = target: the molecule itself; assay: negative stain EM; purified POC5-Centrin2 complexes (co-expressed in insect cells, FLAG affinity and SEC); 3% uranyl acetate; 2D classification and low-resolution 3D reconstruction
[2] = target: the molecule itself; assay: mass photometry; purified POC5-Centrin2 complex (co-expressed in insect cells, FLAG affinity and SEC); 1 µl of 400 nM protein in 19 µl SEC buffer (50 mM Tris pH 7.5, 150 mM NaCl, 1 mM MgCl2); Refeyn TwoMP
[3] = target: B2; assay: as above; conditions: both partners purified

B1: POC5^Δ153-184-TEV-2xFLAG (of the POC5^Δ153-184-Centrin2 complex from insect cells) (natural protein, human, UniProt Q8NA72 1-575, looked up)
chain: MSSDEEKYSLPVVQNDSSRGSSVSSNLQEEYEELLHYAIVTPNIEPCASQSSHPKGELVPDVRISTIHDILHSQGNNSEVRETAIEVGKGCDFHISSHSKTDESSPVLSPRKPSHPVMDFFSSHLLADSSSPATNSSHTDAHEILVSDFLVSFIDWHRMEMRKEKEKHAAHLKQLCNQINELKELQKTFEISIGRKDEVISSLSHAIGKQKEKIELMRTFFHWRIGHVRARQDVYEGKLADQYYQRTLLKKVWKVWRSVVQKQWKDVVERACQARAEEVCIQISNDYEAKVAMLSGALENAKAEIQRMQHEKEHFEDSMKKAFMRGVCALNLEAMTIFQNRNDAGIDSTNNKKEEYGPGVQGKEHSAHLDPSAPPMPLPVTSPLLPSPPAAVGGASATAVPSAASMTSTRAASASSVHVPVSALGAGSAATAASEEMYVPRVVTSAQQKAGRTITARITGRCDFASKNRISSSLAIMGVSPPMSSVVVEKHHPVTVQTIPQATAAKYPRTIHPESSTSASRSLGTRSAHTQSLTSVHSIKVVD
notes: made with deletion primers from the POC5-TEV-2xFLAG CEN2 construct; source: insect cells (MultiBac baculovirus), co-expressed with Centrin2, purified (anti-FLAG beads, 3xFLAG peptide elution, SEC); not shown: 2xFLAG (after a TEV site), C-terminal, kept
stoichiometry N [1]: 2

B2
stoichiometry N [2]: 4

B3: Centrin2 (natural protein, human, UniProt P41208 1-172, looked up)
chain: MASNFKKANMASSSQRKRMSPKPELTEEQKQEIREAFDLFDADGTGTIDVKELKVAMRALGFEPKKEEIKKMISEIDKEGTGKMNFGDFLTVMTQKMSEKDTKEEILKAFKLFDDDETGKISFKNLKRVAKELGENLTDEELQEMIDEADRDGDGEVSEQEFLRIMKKTSLY
notes: Centrin2 (CETN2), human; amplified and cloned into pACEBac1; also called CETN2; CEN2; source: Sf21 insect cells (MultiBac baculovirus), co-expressed with POC5-TEV-2xFLAG, co-purified (anti-FLAG beads, SEC)
stoichiometry N [3]: ~6 Centrin2 molecules per POC5 tetramer
